Assay results from patent publication US12053511B2, “Cystatin C and Cystatin 9 to treat gut inflammation caused by thermal injury” (priority 2016, dated 2024).

Assays:
E. coli O157:H7 (ATCC) = test: Viability and virulence of pathogenic bacterial strains; assay type: cell-based; settings: 50 pg dose
EC 083:H1 and flagellin = test: Mouse model of infection and thermal injury, survival; assay type: in vivo, Balb/c mice; settings: i.p. 500 pg rCST9 and/or 50 pg rCSTC; 1000 ng flagellin + 1×10^7 CFU EC 083:H1 i.p.; 30% TBSA burn; observed 10 days
Description: (§1) Mice were intraperitoneally (i.p.) challenged with 1×10^7 CFU of an intestinal isolate E. coli (EC) and 1000 ng of flagellin then treated i.p. with 500 pg rCST9 and/or 50 pg rCSTC followed by a 30% full-thickness thermal injury (30% TBSA). […] Additional groups of infected, rCST treated and/or thermally injured mice were euthanized at 24 and 48 h post-thermal injury to collect serum and harvest intestinal samples. Cytokines were quantified in the serum and analysis of the gut microbiome.
Female Balb/c mice (n=6 mice/group), weighing 19-21 grams (Jackson Laboratories), were housed in a facility approved by the Association for Assessment and Accreditation for Laboratory Animal Care (AAALAC). Mice were allowed to adjust to their environment for at least seven days prior to the study and given access to food and water throughout the entire study. All animal procedures were approved by University of Texas Medical Branch IACUC and performed humanely with minimal suffering. Briefly, mice were shaved dorsally the morning of experimentation as previously described (8). The mice were given an i.p. challenge of 1000 ng of flagellin and 1×10^7 CFU/mouse of EC 083:H1 and then treated with 500 pg of rCST9 and/or 50 pg of rCSTC. Immediately following treatment, mice were anesthetized with pentobarbital (Nembutal) and subjected to a 30% total body surface area (TBSA) burn injury. […]

[1] = system: human monocyte-derived macrophage (MDM); test: Macrophage killing of pathogens; assay type: cell-based; settings: same five pathogens
[2] = system: Salmonella typhimurium (ATCC); test: Viability and virulence of pathogenic bacterial strains; assay type: cell-based; settings: 50 pg dose
[3] = system: Burkholderia thialandensis (ATCC); test: as above; assay type: cell-based; settings: 50 pg dose
[4] = system: Pseudomonas aeruginosa (isolate from burn patient wound); test: as above; assay type: cell-based; settings: 50 pg dose
gut microbiome = test: Gut microbiome by 16S next generation sequencing, infection and thermal injury model; assay type: in vivo, Balb/c mice
Description: as §1
Gut samples were harvested at 24 and 48 h from the same 4 mouse groups euthanized to collect sera as described above. As we reported in a previous publication (8), briefly, approximately 3 mm^3 pieces of the intestine (close to the cecum) were sterilely harvested from each mouse. For gut microbiome analysis, DNA from intestinal samples was extracted from samples lysed in MagNA Pure DNA Tissue Lysis Buffer followed by automated extraction on a MagNA Pure 96 platform (Roche). The isolated DNA was amplified using a panel of five “universal” primer pairs (Ion Xpress Barcodes) that created overlapping 400 bp DNA fragments covering 95% of the bacterial 16S rDNA. Barcoded amplimers were mixed at equimolar ratios and then subjected to Ion Torrent NGS (Thermo Scientific). Average read length was >300 bases with sequence generated from both strands. Reads were filtered and binned according to Ion Xpress barcode with Ion Torrent Suite software (v 4.0.2). Sequencing reads were then further processed using Galaxy software where each barcode was trimmed to remove the primer sequence. The 16S sequences were compared to the SILVA database using bowtie 2 software to yield species or genera level matches to return the hit-rate. Where multiple calls to the same genera were made the number of hits were added accordingly. Hit rates were converted to percentage of total to give an overall ratio of the sequenced microbiome.

[5] = system: Klebsellia pneumoniae (isolate from burn patient lung); test: Viability and virulence of pathogenic bacterial strains; assay type: cell-based; settings: 50 pg dose
[6] = individual treatment, 24 and 48 h post-burn

B1: rCST9: human recombinant cystatin 9, cysteine proteinase inhibitor; purchased from American Research Products, Inc. (protein, UniProt Q5W186 29-159, looked up)
Cystatin-9: WCSEEEMGGNNKIVQDPMFLATVEFALNTFNVQSKEEHAYRLLRVLSSWREDSMDRKWRGKMVFSMNLQLRQTVCRKFEDDIDNCPFQESLELNNVRQGISFPQVHSCGCCMGCGVGTGAADKAIPRDKGK
In the case of B1, the viability and virulence (E. coli O157:H7 (ATCC)) is reported as “retarded the viability and virulence”, the survival (EC 083:H1 and flagellin) is reported as “did not improve survival” and the “MDM killing of pathogens” value [1] is reported as “induced human monocyte-derived macrophage (MDM) killing”. For the same molecule, the viability and virulence [2] was “retarded the viability and virulence”, the viability and virulence [3] was “retarded the viability and virulence” and the viability and virulence [4] was “retarded the viability and virulence”. For the same molecule, the gut microbiome profile (gut microbiome; [6]) was “preserved the gut microbiome that was equivalent to sham controls” and the viability and virulence [5] was “retarded the viability and virulence”.

B2: rCSTC: human recombinant cystatin C (CST3), cysteine proteinase inhibitor; purchased from R&D Systems (protein, UniProt P01034 27-146, looked up)
Cystatin-C: SSPGKPPRLVGGPMDASVEEEGVRRALDFAVGEYNKASNDMYHSRALQVVRARKQIVAGVNYFLDVELGRTTCTKTQPNLDNCPFHDQPHLKRKAFCSFQIYAVPWQGTMTLSKSTCQDA
B2 was tested, and the “Bacteroidales S24-7 in gut microbiome” value (gut microbiome; 24 h post-burn) was “noticeable but moderate increase”, the “Lachnospiraceae family in gut microbiome” value (gut microbiome; 24 h post-burn) was “proportionate decrease” and the gut microbiome profile (gut microbiome; 48 h post-burn) was “nearly equivalent to sham controls”. For the same molecule, the gut microbiome profile (gut microbiome; [6]) was “preserved the gut microbiome that was equivalent to sham controls”.
